Test [1] addresses soluble-type human DSG3-mouse IgG2aFc fusion protein (human; mouse) (UniProt P32926). In words: sandwich ELISA, luminescence over blank; immobilized MAB1720, detection DF151; antigen 10 pg/mL. (An ELISA detects its analyte on a solid surface through an enzyme-linked reagent.)
Test [2] shares this target. Kind of test: sandwich ELISA, luminescence over blank; immobilized MAB1720, detection DF151; antigen 25000 pg/mL.
For test [3] the target is unchanged. In words: SPFS sandwich; immobilized MAB1720, detection DF151; antigen 1,000 pg/mL (µg/mL in the source).
The target is the same in test [4]. Kind of test: sandwich ELISA, luminescence over blank; immobilized MAB1720, detection DF151; antigen 40 pg/mL.
Test [5] has the same target. Kind of test: sandwich ELISA, antigen in PBS(-); immobilized MAB1720, detection biotinylated D219-3.
For test [6] the target is unchanged. Kind of test: sandwich ELISA, antigen in PBS(-); immobilized MAB1720, detection biotinylated DF151.
Test [7] shares this target. In words: sandwich ELISA, luminescence over blank; immobilized MAB1720, detection DF151; antigen 200 pg/mL.
Test [8] shares this target. Kind of test: sandwich ELISA, luminescence over blank; immobilized MAB1720, detection DF151; antigen 1000 pg/mL.
The target is the same in test [9]. Kind of test: sandwich ELISA, luminescence over blank; immobilized MAB1720, detection DF151; antigen 5000 pg/mL.
For test [10] the target is unchanged. Kind of test: sandwich ELISA, luminescence over blank; immobilized MAB1720, detection DF151; antigen 1 pg/mL.
Test [11] shares this target. Kind of test: sandwich ELISA, antigen added to human serum; immobilized MAB1720, detection biotinylated DF151.
Test [12] has the same target. In words: sandwich ELISA, antigen in PBS(-); immobilized MAB1720, detection biotinylated MAB1720.
Test [13] shares this target. In words: sandwich ELISA, antigen in PBS(-); immobilized MAB1720, detection biotinylated DF366m.
In test [14] the target is T1, soluble-type human DSG3-mouse IgG2aFc fusion protein (human; mouse, UniProt P32926 50-616).
T1 construct: also called human desmoglein 3; desmoglein 3 standard; not shown: mouse IgG2a Fc, printed 'mouse IgG2aFc' and 'mouse IgG2 constant region'
T1 sequence: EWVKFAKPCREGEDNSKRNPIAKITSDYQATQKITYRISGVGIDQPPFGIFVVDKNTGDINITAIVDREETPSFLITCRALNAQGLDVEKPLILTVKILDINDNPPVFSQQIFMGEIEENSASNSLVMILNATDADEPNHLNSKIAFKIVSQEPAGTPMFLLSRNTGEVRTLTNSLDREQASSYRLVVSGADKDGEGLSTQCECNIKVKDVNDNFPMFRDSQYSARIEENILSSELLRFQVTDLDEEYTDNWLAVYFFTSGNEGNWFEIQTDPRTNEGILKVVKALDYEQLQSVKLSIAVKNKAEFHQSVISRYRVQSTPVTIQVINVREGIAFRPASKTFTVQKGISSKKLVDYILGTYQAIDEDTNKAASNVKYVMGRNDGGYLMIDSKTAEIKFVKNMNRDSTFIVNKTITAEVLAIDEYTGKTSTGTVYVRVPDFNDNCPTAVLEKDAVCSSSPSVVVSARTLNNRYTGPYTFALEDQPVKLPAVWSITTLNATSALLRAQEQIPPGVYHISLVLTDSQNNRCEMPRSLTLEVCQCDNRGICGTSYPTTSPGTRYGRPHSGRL
In words: sandwich ELISA, luminescence over blank; immobilized DF366m, detection MAB1720; antigen 5000 pg/mL. The method, then: (§1) Subsequently, the antigen solutions having the above-described concentrations were each added to the plate in an amount of 50 μL/well, and the plate was incubated at room temperature for 1 hour. Then, the antigen solution was removed, and the plate was washed with 0.05% Tween 20-PBS three times. Thereafter, the 1-μg/mL biotinylated antibody solution was added in an amount of 50 μL/well, and the plate was incubated at room temperature for 1 hour.
(§2) Then, after removing the streptavidin-HRP solution and washing the plate with 0.05% Tween 20-PBS three times, a substrate solution (SuperSignal ELISA Femto Maximum Sensitivity Substrate (registered trademark); Pierce Biotechnology, Inc.) was added in an amount of 100 μL/well. One minute thereafter, the luminescence intensity was measured using a luminometer, Fluoroskan Ascent FL (trade name, Thermo Electron Corporation).
(§3) The numerical values shown in Table 1 represent the minimum values of the antigen solution concentration having an S/N ratio of higher than 2 (hereinafter, referred to as “detection limit concentration”) and the unit of the numerical values is pg/mL. The S/N ratio was determined by dividing the luminescence intensity at the respective antigen solution concentrations ([…]) by the luminescence intensity of an antigen-free blank antigen solution (0 μg/mL).

The target in test [15] is T1, soluble-type human DSG3-mouse IgG2aFc …. In words: sandwich ELISA, luminescence over blank; immobilized DF366m, detection DF151; antigen 1000 pg/mL. On the procedure:
as §1, §2, §3

Test [16] has the same target. Kind of test: sandwich ELISA, luminescence over blank; immobilized DF366m, detection DF151; antigen 10 pg/mL. On the procedure: as §1, §2
(§4) The numerical values shown in Table 1 represent the minimum values of the antigen solution concentration having an S/N ratio of higher than 2 (hereinafter, referred to as “detection limit concentration”) and the unit of the numerical values is pg/mL. […]

Test [17] shares this target. Kind of test: sandwich ELISA, luminescence over blank; immobilized DF366m, detection DF151; antigen 25000 pg/mL. The method, then: as §1, §2, §3
The target is the same in test [18]. In words: sandwich ELISA, luminescence over blank; immobilized DF366m, detection MAB1720; antigen 40 pg/mL. On the procedure: as §1, §2, §3
Test [19] has the same target. In words: sandwich ELISA, luminescence over blank; immobilized DF366m, detection MAB1720; antigen 10 pg/mL. On the procedure: as §1, §2, §4
Test [20] shares this target. In words: sandwich ELISA, luminescence over blank; immobilized DF366m, detection DF151; antigen 200 pg/mL. On the procedure: as §1, §2, §3
For test [21] the target is unchanged. In words: sandwich ELISA, luminescence over blank; immobilized DF366m, detection MAB1720; antigen 25000 pg/mL. On the procedure:
as §1, §2, §3

Test [22] shares this target. In words: sandwich ELISA, luminescence over blank; immobilized DF366m, detection MAB1720; antigen 1000 pg/mL. The method, then:
as §1, §2, §3

For test [23] the target is unchanged. In words: sandwich ELISA, luminescence over blank; immobilized DF366m, detection DF151; antigen 5000 pg/mL. On the procedure:
as §1, §2, §3

Test [24] has the same target. In words: sandwich ELISA, luminescence over blank; immobilized DF366m, detection DF151; antigen 40 pg/mL. The method, then:
as §1, §2, §3

The target is the same in test [25]. In words: sandwich ELISA, luminescence over blank; immobilized DF366m, detection MAB1720; antigen 200 pg/mL. The method, then:
as §1, §2, §3

Test [26] has the same target. Kind of test: sandwich ELISA, luminescence over blank; immobilized DF366m, detection MAB1720; antigen 1 pg/mL. The method, then: as §1, §2, §3
For test [27] the target is unchanged. Kind of test: SPFS sandwich; immobilized DF366 (so in the source), detection MAB1720; antigen 1,000 pg/mL (µg/mL in the source). On the procedure:
(§5) Once again, a Tris-buffered saline (TBS) containing 0.05% by mass of Tween 20 was fed and circulated in the flow path for 10 minutes to wash the flow path. Then, with the flow path being filled with PBS buffer (pH 7.4), the assay area was irradiated with laser light (640 nm, 40 μW) from the back side of the metal thin films, and the fluorescence intensity was measured using a photomultiplier tube (PMT) arranged above the assay area. The thus measured value was defined as “signal” (S) at a desmoglein 3 concentration of 100 μg/mL.
(§6) Further, the fluorescence intensity was measured by the same procedures as described above, except that the desmoglein 3 concentration of the fed PBS solution was changed to 10,000 μg/mL, 5,000 μg/mL, 1,000 μg/mL, 200 μg/mL, 50 μg/mL, 10 μg/mL, 3.16 μg/mL, 1 μg/mL, 0.316 μg/mL, 0.1 μg/mL and 0.031 μg/mL. The thus measured values were each defined as “signal” (S) at the respective concentrations.
In addition, when the antibody combination was variously changed in the same manner as in Example 1, it was confirmed that plots similar to the one shown in FIG. 6 can be obtained.

The target is the same in test [28]. Kind of test: sandwich ELISA, luminescence over blank; immobilized DF366m, detection DF151; antigen 1 pg/mL. On the procedure: as §1, §2, §4
The target is the same in test [29]. Kind of test: SPFS sandwich; immobilized DF366m, detection DF151; antigen 1,000 pg/mL (µg/mL in the source). On the procedure:
as §5
On another front, the fluorescence intensity was also measured by the same procedures as described above, except that a PBS solution containing no desmoglein 3 (0 μg/mL) was fed in place of the PBS solution containing 100 μg/mL of desmoglein 3. The thus measured value was defined as “noise” (N).
as §6

Turning to “MAB1720 antibody (R&D Systems, Inc., Catalog No.: MAB1720)”, the S/N ratio in [1] turned out to be 1.1; in [2], 53; in test [3] it was 34.5; in [4], 1; in [7], 1.3; in test [8], 2.8. Also, the S/N ratio in [9] was determined as 11.4; in test [10], 0.9. Further, the detection limit concentration (lowest antigen concentration with S/N > 2) was found to be 5000 pg/mL in test [5], 1000 pg/mL in test [6], 5000 pg/mL in test [12] and 5000 pg/mL in [13]. Moreover, the detection limit concentration in test [11] is 1000 pg/mL.

B1: DF366m (DF366m[I] antibody) (antibody, mouse IgG2a, kappa, V domains shown)
VH: EVQLQQSGPELVKPGASVKISCKASGYTFTDYNMDWVKQSHGESLEWIGYIYPNNGGSGYNQKFKSKATLTVDKSSSTAYMELHSLTSEDSAVYYCARRDSYYGFDMAWFAYWGQGTLVTVSA
VL: DIQMTQSPASLSASVGETVTITCRPSENIYNNLAWYQQKQGKSPQLLVYVATNLAEGVPSRFSGSGSGTRFSLKINSLQPEDFGKYYCQHSYGTPWTFGGGTKLEIKR
notes: Complete antibody; Plain when immobilized; biotinylated (Biotin-AC5-Osu) when used as detection antibody; also called DF366m antibody
On to B1, for which the S/N ratio in [14] was 16.6; in test [15] it was 8.1; in test [16], 1.1; in test [17], 186; in [18], 0.9; in test [19], 1. For the same molecule, the S/N ratio in test [20] came out at 2.3; in [21], 80.4; in test [22], 3.9; in test [23], 37.3; in test [24], 1.2; in [25] it was 1.8. The S/N ratio was determined as 0.9 in [26], 92.2 in test [27], 1 in test [28] and 140 in [29].

The values are drawn from US20150276749A1 (KONICA MINOLTA, published 2015).
